{
  "source": "IntAct's records for PubMed 29176668",
  "biological_target": "ATP2A2, P16615-1",
  "sequence (P16615 whole entry)": "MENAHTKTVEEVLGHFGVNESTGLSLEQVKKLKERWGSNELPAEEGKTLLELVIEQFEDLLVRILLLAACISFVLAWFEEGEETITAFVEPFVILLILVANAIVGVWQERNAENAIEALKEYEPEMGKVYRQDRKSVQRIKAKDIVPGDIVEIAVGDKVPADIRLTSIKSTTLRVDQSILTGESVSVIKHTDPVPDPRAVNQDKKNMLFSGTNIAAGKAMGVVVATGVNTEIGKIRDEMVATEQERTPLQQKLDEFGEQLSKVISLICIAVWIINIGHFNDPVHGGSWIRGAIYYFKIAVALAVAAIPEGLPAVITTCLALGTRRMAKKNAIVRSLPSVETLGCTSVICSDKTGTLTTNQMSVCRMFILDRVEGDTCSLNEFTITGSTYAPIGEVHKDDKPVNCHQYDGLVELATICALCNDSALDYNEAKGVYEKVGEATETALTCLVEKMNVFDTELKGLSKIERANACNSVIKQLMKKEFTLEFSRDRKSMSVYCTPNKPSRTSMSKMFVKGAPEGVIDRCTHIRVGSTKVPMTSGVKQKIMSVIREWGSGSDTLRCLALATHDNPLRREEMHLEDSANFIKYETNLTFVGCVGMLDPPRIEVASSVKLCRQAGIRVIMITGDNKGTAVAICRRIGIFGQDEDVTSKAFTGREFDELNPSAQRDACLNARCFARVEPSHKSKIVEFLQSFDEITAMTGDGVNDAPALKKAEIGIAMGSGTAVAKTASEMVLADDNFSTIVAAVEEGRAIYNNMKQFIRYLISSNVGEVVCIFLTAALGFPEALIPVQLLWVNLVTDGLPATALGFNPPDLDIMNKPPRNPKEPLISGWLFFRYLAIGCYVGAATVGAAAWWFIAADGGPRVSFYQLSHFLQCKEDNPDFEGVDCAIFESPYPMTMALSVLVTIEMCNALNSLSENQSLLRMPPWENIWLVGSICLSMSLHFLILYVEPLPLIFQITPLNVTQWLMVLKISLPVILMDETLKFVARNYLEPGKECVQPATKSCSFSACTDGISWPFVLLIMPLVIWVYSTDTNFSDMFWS",
  "data": [
    {"substance": "Piezo-type mechanosensitive ion channel component 1 (Mus musculus), E2JF22 E2172A;K2173A;K2174A;Y2175A;P2176A;Q2177A;P2178A;K2179A;G2180A;Q2181A", "values": [
      {"measurement": "effect of a mutation on the interaction", "value": "decreasing interaction strength"}
    ]},
    {"substance": "Piezo-type mechanosensitive ion channel component 1 (Mus musculus), E2JF22 K2182A;K2183A;K2184A;K2185A", "values": [
      {"measurement": "effect of a mutation on the interaction", "value": "decreasing interaction strength"}
    ]}
  ]
}
